T1: cynomolgus CD30L expressed on HEK293 cells (cynomolgus, UniProt A0A7N9CVX7 1-234)
T1 construct: whole, on cells; also called HEK293-cyCD30L; HEK-cyCD30L
T1 sequence: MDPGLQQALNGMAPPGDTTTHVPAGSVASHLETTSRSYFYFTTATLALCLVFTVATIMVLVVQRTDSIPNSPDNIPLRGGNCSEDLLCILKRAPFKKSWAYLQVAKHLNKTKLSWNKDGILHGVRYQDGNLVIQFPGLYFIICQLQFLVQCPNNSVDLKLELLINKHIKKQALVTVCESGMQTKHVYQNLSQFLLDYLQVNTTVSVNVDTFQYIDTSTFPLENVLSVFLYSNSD

T2: recombinant human CD30L (human, UniProt P32971 63-234)
T2 construct: Purified recombinant protein of ELISA, BLI, Carterra and KinExA; also called rhCD30L; huCD30L
T2 sequence (looked up): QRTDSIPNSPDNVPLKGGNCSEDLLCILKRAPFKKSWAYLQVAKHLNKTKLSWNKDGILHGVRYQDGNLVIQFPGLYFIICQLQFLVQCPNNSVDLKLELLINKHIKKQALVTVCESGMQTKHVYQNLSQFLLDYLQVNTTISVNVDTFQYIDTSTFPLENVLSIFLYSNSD

T3: human CD30L expressed on B16 cells (human, UniProt P32971 1-234)
T3 sequence (looked up): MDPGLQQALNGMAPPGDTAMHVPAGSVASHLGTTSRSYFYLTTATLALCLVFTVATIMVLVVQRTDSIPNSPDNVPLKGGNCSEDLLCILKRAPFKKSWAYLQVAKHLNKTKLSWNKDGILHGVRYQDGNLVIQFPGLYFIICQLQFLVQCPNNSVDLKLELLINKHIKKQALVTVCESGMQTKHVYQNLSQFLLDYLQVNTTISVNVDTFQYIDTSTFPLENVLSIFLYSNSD

T4: recombinant cynomolgus CD30L (cynomolgus, UniProt A0A7N9CVX7 63-234)
T4 construct: Purified recombinant protein; also called rcyCD30L; cyno CD30L
T4 sequence: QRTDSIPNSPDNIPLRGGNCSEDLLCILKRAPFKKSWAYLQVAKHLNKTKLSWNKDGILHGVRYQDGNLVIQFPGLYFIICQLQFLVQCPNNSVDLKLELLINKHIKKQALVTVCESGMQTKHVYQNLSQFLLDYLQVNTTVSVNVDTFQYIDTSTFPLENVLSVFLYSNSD

T5: CDH13 (human, UniProt P55290 139-693)
T5 construct: whole, on cells; also called hit #16
T5 sequence (looked up): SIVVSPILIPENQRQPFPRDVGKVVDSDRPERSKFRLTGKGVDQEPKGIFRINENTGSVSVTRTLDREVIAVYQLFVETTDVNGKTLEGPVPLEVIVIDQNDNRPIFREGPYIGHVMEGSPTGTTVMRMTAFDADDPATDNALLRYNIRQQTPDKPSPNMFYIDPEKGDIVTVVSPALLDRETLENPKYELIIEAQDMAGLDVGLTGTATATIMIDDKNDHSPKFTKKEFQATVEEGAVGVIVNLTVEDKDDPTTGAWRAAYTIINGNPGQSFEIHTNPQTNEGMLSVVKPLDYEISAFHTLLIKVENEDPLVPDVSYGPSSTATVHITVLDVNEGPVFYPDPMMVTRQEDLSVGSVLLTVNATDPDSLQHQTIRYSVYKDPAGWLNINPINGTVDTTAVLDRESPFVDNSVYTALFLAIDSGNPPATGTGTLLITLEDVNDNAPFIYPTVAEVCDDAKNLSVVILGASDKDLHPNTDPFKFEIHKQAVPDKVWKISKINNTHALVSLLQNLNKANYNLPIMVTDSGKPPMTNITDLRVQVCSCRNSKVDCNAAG

T6: human CD30L expressed on cells (human, UniProt P32971 1-234)
T6 construct: also called huCD30L; B16-huCD30L
T6 sequence: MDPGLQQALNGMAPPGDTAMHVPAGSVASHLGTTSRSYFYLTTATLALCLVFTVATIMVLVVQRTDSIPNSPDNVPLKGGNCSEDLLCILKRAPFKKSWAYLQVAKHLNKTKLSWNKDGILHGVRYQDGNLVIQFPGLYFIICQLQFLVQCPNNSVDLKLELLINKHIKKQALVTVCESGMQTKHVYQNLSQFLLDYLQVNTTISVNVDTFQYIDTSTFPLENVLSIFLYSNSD

T7: recombinant human CD30L protein (human, UniProt P32971 63-234)
T7 construct: also called rhCD30L; huCD30L (ELISA)
T7 sequence (looked up): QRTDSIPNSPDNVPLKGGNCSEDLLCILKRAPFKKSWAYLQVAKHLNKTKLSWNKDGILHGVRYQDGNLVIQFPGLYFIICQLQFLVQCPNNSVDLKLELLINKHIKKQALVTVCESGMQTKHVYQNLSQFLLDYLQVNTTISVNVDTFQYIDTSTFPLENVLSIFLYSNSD

T8: recombinant mouse CD30L (mouse, UniProt P32972 68-239)
T8 construct: Purified recombinant protein; also called rmCD30L
T8 sequence (looked up): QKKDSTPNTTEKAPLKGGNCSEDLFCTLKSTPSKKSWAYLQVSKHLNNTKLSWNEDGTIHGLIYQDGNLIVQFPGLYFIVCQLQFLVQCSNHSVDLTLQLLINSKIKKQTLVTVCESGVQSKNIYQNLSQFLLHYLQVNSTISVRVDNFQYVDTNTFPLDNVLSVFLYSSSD


What was measured:
[1] = target: T1, cynomolgus CD30L expressed on HEK293 …; test: flow cytometry, blocking of CD30-Fc on HEK293-cyCD30L cells; competitor CD30-Fc
recombinant human CD30L [2] = target: T2, recombinant human CD30L; test: ELISA, binding to purified rhCD30L
[3] = target: T1, cynomolgus CD30L expressed on HEK293 …; test: cell-based or functional assay
[4] = target: T3, human CD30L expressed on B16 cells; test: cell-based or functional assay
[5] = target: T1, cynomolgus CD30L expressed on HEK293 …; test: flow cytometry, binding to HEK293-cyCD30L cells
[6] = target: T3, human CD30L expressed on B16 cells; test: flow cytometry, binding to B16-rhCD30L cells
[7] = target: T3, human CD30L expressed on B16 cells; test: flow cytometry, blocking of CD30-Fc on B16-huCD30L cells; competitor CD30-Fc
[8] = target: T4, recombinant cynomolgus CD30L; test: ELISA, binding to purified rcyCD30L
recombinant human CD30L [9] = target: T2, recombinant human CD30L; test: ELISA, blocking of CD30-Fc on huCD30L; competitor CD30-Fc
[10] = target: T4, recombinant cynomolgus CD30L; test: ELISA, blocking of CD30-Fc on rcyCD30L; competitor CD30-Fc
CDH13 = target: T5, CDH13; test: cell microarray, library and confirmation screens
[11] = target: T6, human CD30L expressed on cells; test: flow cytometry, HuCD30L cells
[12] = target: T7, recombinant human CD30L protein; test: ELISA, HuCD30L
[13] = target: T3, human CD30L expressed on B16 cells; test: flow cytometry on B16 cells expressing hCD30L
recombinant human CD30L [14] = target: T2, recombinant human CD30L; test: BLI, CD30 association to CD30L held by captured IgG; competitor rhCD30
Experimental: Briefly, individual anti-human biosensors were loaded with purified IgG (normalized to 10 μg/mL) and a baseline was measured for each biosensor. Biosensors were saturated with biotin and with polyclonal hulgG and a baseline was measured. Loaded biosensors were then allowed to bind CD30L and the association rate was measured for the binding. Biosensors were moved to buffer wells to measure the dissociation rate.

[15] = target: T3, human CD30L expressed on B16 cells; test: flow cytometry, binding to B16 cells expressing human CD30L (MFI)
[16] = target: T4, recombinant cynomolgus CD30L; test: ELISA on recombinant protein
recombinant mouse CD30L = target: T8, recombinant mouse CD30L; test: ELISA on recombinant protein
recombinant human CD30L [17] = target: T2, recombinant human CD30L; test: ELISA on recombinant protein
recombinant human CD30L [18] = target: T2, recombinant human CD30L; test: ELISA, binding to rhCD30L (OD 450 nm)
recombinant human CD30L [19] = target: T2, recombinant human CD30L; test: recombinant blocking ELISA; competitor CD30

Row | hCD30L B16 (+) FLOW [13] | rhCD30L:rhCD30 Blocking (recombinant human CD30L [14]) | EC50 (read off the curve) [15] [nM] | rcyCD30L (+) ELISA [16] | rmCD30L (+) ELISA (recombinant mouse CD30L) | rhCD30L (+) ELISA (recombinant human CD30L [17]) | EC50 (read off the curve) (recombinant human CD30L [18]) [nM] | IC50 (recombinant human CD30L [19]) [nM] | Binder | further results
1 | – | – | – | – | – | – | – | – | anti-CD30L antibody clone 1 (antibody, V domains shown, also called clone 1 parental) VH: QVQLQESGPGLVKPSETLSLTCTVSGGSISGYYWSWIRQPPVKGLEWIGYIFYSGYTKYNPSLKSRVTISVDTSKNQFSLKLSSVTAADTAVYYCARDRWDFDYWGQGALVTVSS VL: AIQMTQSPSYLSASVGDRVTIACRASQGIRNNLGWYQQKPGKAPKLLIYAESSLQSGVPSRFSGSGSGTDFTLTISSLQPEDFATYYCLQDFNYPYTFGQGTKLEIK | IC50 [1]: 0.51 nM; EC50 (recombinant human CD30L [2]): 0.05 nM; Inhibition of IL-8 release in a dual cell assay (HEK293-cyCD30L cells + K299 cells) IC50 [3]: 0.39 nM; Inhibition of IL-8 release in a dual cell assay (B16-huCD30L cells + K299 cells) IC50 [4]: 1.43 nM; EC50 [5]: 0.67 nM; EC50 [6]: 1.11 nM; IC50 [7]: 1.06 nM; EC50 [8]: 0.07 nM; IC50 (recombinant human CD30L [9]): 2.14 nM; IC50 [10]: 1.58 nM
2 | – | – | – | – | – | – | – | – | anti-CD30L antibody clone 1 with IgG1 constant region SEQ ID NO: 502 (antibody, V domains shown, copies: 2 + 2) VH: QVQLQESGPGLVKPSETLSLTCTVSGGSISGYYWSWIRQPPVKGLEWIGYIFYSGYTKYNPSLKSRVTISVDTSKNQFSLKLSSVTAADTAVYYCARDRWDFDYWGQGALVTVSS VL: AIQMTQSPSYLSASVGDRVTIACRASQGIRNNLGWYQQKPGKAPKLLIYAESSLQSGVPSRFSGSGSGTDFTLTISSLQPEDFATYYCLQDFNYPYTFGQGTKLEIK | binding result (CDH13): no binding (tested: 5 µg/mL)
3 | – | – | – | – | – | – | – | – | anti-CD30L antibody clone 1 germlined with IgG1 constant region SEQ ID NO: 502 (antibody, V domains shown, copies: 2 + 2) VH: QVQLQESGPGLVKPSETLSLTCTVSGGSISGYYWSWIRQPPGKGLEWIGYIFYSGYTKYNPSLKSRVTISVDTSKNQFSLKLSSVTAADTAVYYCARDRWDFDYWGQGTLVTVSS VL: AIQMTQSPSSLSASVGDRVTITCRASQGIRNNLGWYQQKPGKAPKLLIYAESSLQSGVPSRFSGSGSGTDFTLTISSLQPEDFATYYCLQDFNYPYTFGQGTKLEIK | binding result (CDH13): no binding (tested: 5 µg/mL)
4 | – | – | – | – | – | – | – | – | anti-CD30L clone 59 (antibody, V domains shown) VH: QVQLVESGGGVVQPGRSLRLSCAASGFTFSIYGMHWVRQAPGKGLEWVAVIWYDGSNKYYVDSVKGRFTISRDNSKNSLYLQMNSLRAEDTAVYYCAREGNLFDYWGQGTLVTVSS VL: DIQMTQSPSTLSASVGDRVTITCRASQSISSWLAWYQQKPGKAPKLLIYKASSLESGVPSRFSGSGSGTEFTLTISSLKPDDFATYYCQQYKSYYTFGQGTKLEIK | MFI [11]: 9790 MFI; OD [12]: 0.06 OD
5 | 6.07e+06 | 0.0592 | ~1 | 0.724 | 0.046 | 1.87 | ~0.1 | 3.18 | anti-CD30L antibody clone 63 (antibody, V domains shown, purified recombinant IgG (held by anti-human biosensors); mouse strain #1) VH: EVQLVESGGGLVQPGGSLRLSCAASGFMFSSYSMNWVRQAPGKGLEWVSYISSSSSTIYDADSVKGRFTISRDDAKNSLYLQMNSLRDEDTAVYYCTREAYPGYYYNYMDVWGKGTTVTVSS VL: DIQMTQSPSSLSASVGDRVTITCRASQSISSRLAWYQQKPGKAPNLLIYKASNLESGVPSRFSGSGSGTEFTLTISSLQPDDFATYYCQQYNSYSRTFGQGTKVEIK | –
6 | 5.67e+06 | 0.0633 | ~1 | 0.951 | 0.049 | 2.04 | ~0.1 | 3.17 | anti-CD30L antibody clone 64 (antibody, V domains shown, purified recombinant IgG (held by anti-human biosensors); mouse strain #1) VH: EVQLVESGGGLVQPGGSLRLSCAASGFTFSNYAMTWVRQAPGKGLEWVSAISGFGGSTYYADSVKGRFTISRDNSKNTLYLQMNSLRAEDTAVYYCAKDHDYYAFDYWGQGTLVTVSS VL: not shown | –
7 | 6.91e+06 | 0.0522 | ~1 | 1.38 | 0.047 | 1.97 | ~0.1 | 3.66 | anti-CD30L antibody clone 65 (antibody, V domains shown, purified recombinant IgG (held by anti-human biosensors); mouse strain #1) VH: EVQLVESGGGLVQPGGSLKLSCAASGFTFSNYAMTWVRQAPGKGLEWVSAISGYGGSTYYAASVKGRFTISRDNSKNTLFLQMNSLRAEDTAVYYCAKDHDYYAFDYWGQGTLVPVSS VL: not shown | –
8 | – | – | – | – | – | – | – | – | anti-CD30L antibody clone 2 (antibody, V domains shown, also called clone 2 parental) VH: EVQLVESGGGLVQPGRSLRLSCAASGFNFDDYAMHWVRQAPGKGLEWVSGISWRSGNIGYAGSVKGRFTISRDNAKNSLYLQMNSLRPEDSALYYCAKDKGIGFNWNYEGFDYWGQGTLVTVSS VL: DIQMTQSPSSLSASVGDRVTITCRASQGISNHLAWFQQKPGKAPKSLIYAASSLQSGVPSKFSGSGSGTDFTLTISSLQPEDFATYYCQQYVTYPLTFGGGTKVEIK | IC50 [1]: 0.34 nM; EC50 (recombinant human CD30L [2]): 0.04 nM; Inhibition of IL-8 release in a dual cell assay (HEK293-cyCD30L cells + K299 cells) IC50 [3]: 0.31 nM; Inhibition of IL-8 release in a dual cell assay (B16-huCD30L cells + K299 cells) IC50 [4]: 0.81 nM; EC50 [5]: 0.3 nM; EC50 [6]: 0.74 nM; IC50 [7]: 0.79 nM; EC50 [8]: 0.05 nM; IC50 (recombinant human CD30L [9]): 1.35 nM; IC50 [10]: 1.28 nM
